Consider 7 molecules from patent US20260265800A1, “NEW FUCOSYLTRANSFERASES FOR IN VIVO SYNTHESIS OF LNFP-III” (DSM IP Assets B.V., priority 2022, published 2026).

For series [1], the system named is LNnT. Briefly: Deep well assay: HMO profile of LNnT-producing strains expressing α-1,3-fucosyltransferases (HPLC). The series is classed as cell-based, Escherichia coli. As for the experimental part:
Deep Well Assays in the current examples were performed as originally described to Lv et al (Bioprocess Biosyst Eng 20 (2016) 39:1737-1747) and optimized for the purposes of the current invention. More specifically, the strains disclosed in the present example were screened in 96 deep well plates using a 4-day protocol. During the first 24 hours, precultures were grown to high densities (OD600 up to 5) and subsequently transferred to a medium that allowed induction of gene expression and product formation.
More specifically, during day 1, fresh precultures were prepared using a basal minimal medium (BMM) (pH 7.0) supplemented with magnesium sulphate (0.12 g/L), thiamine (0.004 g/L) and glucose (5.5 g/L). Basal Minimal medium had the following composition: NaOH (1 g/L), KOH (2.5 g/L), KHzPO4 (7 g/L), NH&HzPO4 (7 g/L), Citric acid (0.5 g/l), trace mineral solution (5 mL/L). The trace mineral stock solution contained; ZnSO~*7H~O 0.82 g/L, Citric acid 20 g/L, Mn$04*H&O 0.98 g/L, FeSO4*7H&O 3.925 g/L, CuSO4*5H~O 0.2 g/L. The pH of the Basal Minimal Medium was adjusted to 7.0 with 5 N NaOH and autoclaved. The precultures were incubated for 24 hours at 34° C. and 1000 rpm shaking and then further transferred to 0.75 ml of a new BMM (pH 7,5) to start the main culture. The new BMM was supplemented with magnesium sulphate (0.12 g/L), thiamine (0.02 g/L), a bolus of glucose solution (0.1-0.15 g/L) and a bolus of lactose solution (5-20 g/L) Moreover, a 20% stock solution of sucrose (40-45 g/L) or maltodextrin (19-20 g/L) was provided as carbon source, accompanied by the addition of a specific hydrolytic enzyme, sucrose hydrolase or glycoamylase, respectively, so that glucose was released at a rate suitable for carbon-limited growth and similar to that of a typical fed-batch fermentation process. The main cultures were incubated for 72 hours at 28° C. and 1000 rpm shaking. For the analysis of total broth, the 96 well plates were boiled at 100° C., subsequently centrifuged, and finally the supernatants were analysed by HPLC.
Genetically modified cells expressing individual α-1,3-fucosyltransferase enzymes were screened for their ability to produce the fucosylated HMO LNFP-III.
Genetically modified strains expressing the six individual α-1,3-fucosyltransferases (table 5) were generated as described in the “Method” section. The cells were screened in the deep well assay setup as described in the “Method” section.
The molar content of individual HMOs produced by the strains was measured by HPLC.
The results of the LNFP-III producing cells are shown in table 7 as the fraction of the total molar HMO content (in percentage, %) produced by each strain.

The test system of series [2] is β-galactosidase activity. Description: LacZ assay of promoter strength. Format: cell-based. As to conditions: LacZ assay at 30° C.; Plac induced with IPTG. As for the experimental part:
Increasing the promoter strength driving the expression of the desired enzyme may be one way of doing this. The strength of a promoter can be assessed using a lacZ enzyme assay where β-galactosidase activity is assayed as described previously (see e.g., Miller J. H. Experiments in molecular genetics, Cold spring Harbor Laboratory Press, NY, 1972). Briefly the cells are diluted in Z-buffer and permeabilized with sodium dodecyl sulfate (0.1%) and chloroform. The LacZ assay is performed at 30° C. Samples are preheated, the assay initiated by addition of 200 μl ortho-nitro-phenyl-β-galactosidase (4 mg/ml) and stopped by addition of 500 μl of 1 M Na2CO3 when the sample had turned slightly yellow. The release of ortho-nitrophenol is subsequently determined as the change in optical density at 420 nm. The specific activities are reported in Miller Units (MU) [A420/(min*ml*A600)]. A regulatory element with an activity above 10,000 MU is considered strong and a regulatory element with an activity below 3,000 MU is considered weak, what is in between has intermediate strength. An example of a strong regulatory element is the PglpF promoter with an activity of approximately 14.000 MU and an example of a weak promoter is Plac which when induced with IPTG has an activity of approximately 2300 MU. […]

The test system of series [3] is β-galactosidase activity. The settings on record: LacZ assay, cited from earlier work; for % Activity relative to PglpF: PglpF as positive reference, a range indicates results from multiple assays.
[4] abbreviates: two genomic copies and high copy plasmid (pUC57-Parm1-PglpF).

B1: Med1: α-1,3-fucosyltransferase from Mediterranea sp. An20, GenBank WP_087337236.1, SEQ ID NO: 4 (protein, listed as Mediterranea sp.)
chain: MRKILILFYNKLWGVSWENEACASIPDGFELTDDRSRMAEADAVVFHLPDLARCMDGEEIEKRDGQLWVTWNLECDDNYPWVEAPEIRDLFDLRIGYRQQDDVWYPYFSFIRAEAFTRLPPRRPPLDKACLFVSSPFNRSHRFEFLRELMRHTEVDSFGRMLHNKDLPADEGRKTLMEKIADYKFVIGVENALARDYVTEKFFQPLLAGTVPVYRGAPNVEEFAPGRHCFVDARAFRSPADLAGFMNRCYEHPALYDELTAWRTQPLQPGFVQKLEQVKEHPFVRLCRVVEEKIRRIEYKIT
B1: the “LNDFH-III, % of total HMO molar (mM) content produced by each strain” value (shortened to “LNDFH-III, % of total HMO molar”) in series [1] (FT copy nr as in table 7) is on record as “do not produce any”.

B2: Parm1: α-1,3-fucosyltransferase from Parabacteroides merdae, GenBank WP_129943149.1, SEQ ID NO: 2 (protein, listed as Parabacteroides merdae)
chain: MKHETPVLSFIIPIYNVELYLPACLESVLHLPLTNFEIILIDDGSTDNSGRIADKYAENYSHIHVIHQTNAGLSATRNRGVELAEGNYIAFLDSDDWLIGDQIVDIYLQTSQANADMGMGNSLFCYPDGSNGNPFAPIPQNLIGQTIDGKYCFTELMKQNVYPPMVYNYIYRREWLLSHQLRFESVLHEDELWTPIALCYARRIVVTNIDFYGYRQREGSIMTSLRREKRIHDLFFIADRLIRLAENYRFDSDDKNLKSQLYVRSYLLYKIAFSSLAHIHDTRFILPTHHLYQLFAIKNKLTADARNTCINQYKTAKQGLKSYLKWRNSYWIRKLTYEISPETKLILIFNTMWNKPLDIPIQKIPANCIITTDRRFLSTADFVVFHLPDLSNELEEDLDKPEGQKWVAWSLECEENYHFLKDPEFMEVFDYKMSYHQDADIVYPYYRYEYRKELILMPEFSFHEKKDICMMISSPFNQSGRQEYLQELMQYISIDSYGKLFNNCKLEKDSGQDSKMELYRQYKFVIAFENSRANDYVTEKFYDPLLAGAVPIYLGAPNIETFAPGENCSVDIRNFSSPKELAAFLIEACKNEKIYNKFLQWKKEPLKPEFMKKIEAQRVHPFIRLCHLLHLPPPTSRYDGARKKNAHRS
For B2, in series [1] (FT copy nr as in table 7), the “LNnT, % of total HMO molar (mM) content produced by each strain” value was found to be 21%. In series [1] (two genomic copies), the “amount of LNnT produced, % of the total HMO content” value amounted to 14% and the “relative amount of LNFP-III produced, % of the total HMO content” value came out at 81%. In series [1] (setting [4]), the “amount of LNnT produced, % of the total HMO content” value amounted to 5% and the “relative amount of LNFP-III produced, % of the total HMO content” value was 86%.

B3: PglpF: promoter sequence, SEQ ID NO: 28; positive reference of the LacZ assay (nucleic acid, listed as Escherichia coli)
DNA: GCGGCACGCCTTGCAGATTACGGTTTGCCACACTTTTCATCCTTCTCCTGGTGACATAATCCACATCAATCGAAAATGTTAATAAATTTGTTGCGCGAATGATCTAACAAACATGCATCATGTACAATCAGATGGAATAAATGGCGCGATAACGCTCATTTTATGACGAGGCACACACATTTTAAGTTCGATATTTCTCGTTTTTGCTCGTTAACGATAAGTTTACAGCATGCCTACAAGCATCGTGGAGGTCCGTGACTTTCACGCATACAACAAACATTAACCAAGGAGGAAACAGCT
With B3, the “promoter activity in Miller Units” value in series [2] is “approximately 14.000 MU”. In addition, in series [3], the “% Activity relative to PglpF” value is given as 100% and the Strength result is listed as “high (A regulatory element with an activity above 10,000 MU is considered strong)”.

B4: Camp1: α-1,3-fucosyltransferase from Campylobacter sp., GenBank MBP3676691.1, SEQ ID NO: 1 (protein, listed as Campylobacter sp.)
chain: MRKDLVIIRVDGGIASQIAFVALGLEFESRGYKVKYDLSWFDEFGNGFYNEQNGYDRSYNITFDIPKAFPDIKCEIASRDEIEIYRKKYFVDNEEVIELKPPLYVGGYLGRHFDFKYRDFFAKHFNPKEIQESDSECKILLDNILSNHSCGVHIRMGDLSKEHVVYGKPLSVEYFLKNIQLVLQIEPKSKFYFFSDDLEWVKKKVIPSLHSIEYEICNVNSVEKGYLDLYLLSRCKIIIASQGSMGKYAKMLALDSKTLLITPNKNAPMENMMMVNWADSYESFEEKQIQKPLSWRNKIRLKIYKKLRNKLLQKGIL
Consider B4, for which the “LNDFH-III, % of total HMO molar” value in series [1] (FT copy nr as in table 7) is on record as “do not produce any”.

B5: Hpull1: α-1,3-fucosyltransferase from Helicobacter pullorum, GenBank WP_065831246.1, SEQ ID NO: 3 (protein, listed as Helicobacter pullorum)
chain: MRKDLVIIRVDGGIASQISFVALGLEFESRGYKVKYDLSWFDEFGNGICNEQNGYDRSYNIVFDIPKAFPDIKCEIASRDEIEIYRKKYFVDNEEVIELKPPLYVGGYLGRHFNFKYRDFFAKHFNPKEIQESDSECKILLDNILSNHSCGVHIRRGDLSKEHVVYGKPLSVEYFLKNIQLVLQIEPKSKFYFFGDDLEWVKKKVIPSLNSIEYEICNVNSVEKGYLDLYLLSRCKIIIASQGSMGKFAKMLASDTETLLIAPNKNAPMENMIMVNWVDSYESSGEKQIQKPLSWRNKIRLKIYKKFRNKLLQKGIL
On to B5, for which, in series [1] (FT copy nr as in table 7), the “LNDFH-III, % of total HMO molar” value is “do not produce any”.

B6: Plac_wt: promoter sequence, SEQ ID NO: 37 (nucleic acid, listed as Escherichia coli)
DNA: TGTGAGTTAGCTCACTCATTAGGCACCCCAGGCTTTACACTTTATGCTTCCGGCTCGTATGTTGTGTGGAATTGTGAGCGGATAACAATTTCACACAGGAAACAGCT
modifications: expressed or natural sequence
Take B6: in series [2], the “promoter activity in Miller Units” value is recorded as “approximately 2300 MU”. For the same molecule, in series [3], the “% Activity relative to PglpF” value is reported as 15-28% and the Strength result is “low (a regulatory element with an activity below 3,000 MU is considered weak)”.

B7: Hacin2: α-1,3-fucosyltransferase from Helicobacter acinonychis, GenBank WP_104687422.1, SEQ ID NO: 5 (protein, listed as Helicobacter acinonychis)
chain: MFQPLLDAYTDSAYSDASDHKPPLNIAIANGWGGTKGFEASVLYFILSWRYKIALHENPNKPADLVFSNPLGQARKILSYQNTKRVFYTGENEVPNFNLFDYAIGFDGLDFKERYLRMPLYYASLHDKAQSVNDTTAPYTLKSDSLYALKKPAHCFKEDHPKLCSVVKGESDPFKRGFASFVAGNANAPMRNAFCEALNSVEPVTGGGAVKNTLGYNVTNKSEFLSQYKFNLCFENAQGYGYVTEKIIDAYFSHTIPIYWGSPSVAQDFNPKSFVNVHDFKDFDGAIDYIRYLHTHENAYLDMLYENPLNVIDGKACFYQDLSFKKILDFFKTILENDTIYHNNPFVFDRDLHEPLVSIDNLRADLLLLKDNYDGLKTDYDGLKTDYDGLKTDYDGLKTDYDGLKTDYDGLKTDYDGLKTDYDHLFKSALPLLELSQTTSFKIYHKIYQKTLPLLRMARKLVKK
With B7, the “LNDFH-III, % of total HMO molar” value in series [1] (FT copy nr as in table 7) is given as “do not produce any”.
